Assay results taken from patent publication US20180022779.

B1: human CytB5R3 (endogenous, vascular cell co-culture and human coronary ECs) (protein)
chain: GAQLSTLGHMVLFPVWFLYSLLMKLFQRSTPAITLESPDIKYPLRLIDREIISHDTRRFRFALPSPQHILGLPVGQHIYLSARIDGNLVVRPYTPISSDDDKGFVDLVIKVYFKDTHPKFPAGGKMSQYLESMQIGDTIEFRGPSGLLVYQGKGKFAIRPDKKSNPIIRTVKSVGMIAGGTGITPMLQVIRAIMKDPDDHTVCHLLFANQTEKDILLRPELEELRNKHSARFKLWYTLDRAPEAWDYGQGFVNEEMIRDHLPPPEEEPLVLMCGPPPMIQYACLPNLDHVGHPTERCFVF
B2: FLAG-tagged CytB5R3 (Origene) (protein)
chain: GAQLSTLGHMVLFPVWFLYSLLMKLFQRSTPAITLESPDIKYPLRLIDREIISHDTRRFRFALPSPQHILGLPVGQHIYLSARIDGNLVVRPYTPISSDDDKGFVDLVIKVYFKDTHPKFPAGGKMSQYLESMQIGDTIEFRGPSGLLVYQGKGKFAIRPDKKSNPIIRTVKSVGMIAGGTGITPMLQVIRAIMKDPDDHTVCHLLFANQTEKDILLRPELEELRNKHSARFKLWYTLDRAPEAWDYGQGFVNEEMIRDHLPPPEEEPLVLMCGPPPMIQYACLPNLDHVGHPTERCFVF

Target: purified Hb α chains (isolated from lyophilized hemoglobin, Sigma), P69905
Sequence (P69905 2-142): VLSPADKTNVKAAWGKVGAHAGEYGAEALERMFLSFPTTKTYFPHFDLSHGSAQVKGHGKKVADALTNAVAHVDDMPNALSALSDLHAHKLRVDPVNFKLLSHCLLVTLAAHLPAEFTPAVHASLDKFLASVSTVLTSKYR

Protein | met-Hb α reduction, time lapse UV-visible spectrometry of EC lysates mixed with purified Hb α chains and NADH | met-Hb α reduction, time lapse UV-visible spectrometry of lysates of ECs transfected with CytB5R3-Flag, mixed with purified Hb α chains and NADH
B1 | loss of CytB5R3 inhibited metHb α reduction | 
B2 |  | overexpression enhanced metHb α reduction
